{"source": "patent JP2008058208A", "biological_target": "T1, C−反応性タンパク(CRP), ヒトCRP抗原 (human) (UniProt P02741)", "T1 sequence (looked up)": "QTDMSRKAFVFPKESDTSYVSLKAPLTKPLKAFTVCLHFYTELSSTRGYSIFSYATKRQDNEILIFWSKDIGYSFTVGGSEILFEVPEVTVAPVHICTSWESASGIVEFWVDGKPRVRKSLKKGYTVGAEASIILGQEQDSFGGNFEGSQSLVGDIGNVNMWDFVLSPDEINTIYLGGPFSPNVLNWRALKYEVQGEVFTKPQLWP", "experiment": "sandwich immunochromatography, His20 as capture and as gold-colloid label, read by eye after 15 min", "data": [{"binder": "抗CRPscFv抗体No.20 (His-tagged scFv, His20) (scFv, not shown: small tags and cut ends) scFv: MAQVKLPESGAELVKPGASVKLSCTPSGFNIKDTYIHWVRQRPGQGLEWIGRIDPANGHTRYAPKFQGKATLTADASSNTAYLHLSSLTSEDTAVYYCPRIVWYSGGYAMDYWGQGTTVTVSSGGGGSGGGGSGGGGSDIELTQSPSSMYASLGERVTITCKASQDINSYLSWFQQKPGKSPKTLIYRANRLVDGVPSRFSGSGSGQDYSLTISSLKYEDMGIYYCLQYDEFPLTFGGGTKLEIKRAA", "values": [{"measurement": "lowest detectable CRP concentration", "value": 1, "unit": "ng/mL"}]}]}
